{"source": "patent US6861508B2", "about": "“Transcriptional intermediary factor-2” (Institut National de la Sante et de la Recherche Medicale, priority 1996, dated 2005)", "molecules": {"B1": {"name": "GST-hTAFII18 (printed hTAFn18) (other, human, UniProt Q15543 1-124, looked up)", "chain": "MADEEEDPTFEEENEEIGGGAEGGQGKRKRLFSKELRCMMYGFGDDQNPYTESVDILEDLVIEFITEMTHKAMSIGRQGRVQVEDIVFLIRKDPRKFARVKDLLTMNEELKRARKAFDEANYGS", "notes": "not shown: glutathione-S-transferase (GST)"}, "B2": {"name": "TIF2.13: TIF2 fragment Pro1011 to Ser1122 (protein, UniProt Q15596 1011-1122, looked up, fragment)", "chain": "PSELEMNMGGPQYSQQQAPPNQTAPWPESILPIDQASFASQNRQPFGSSPDDLLCPHPAAESPSDEGALLDQLYLALRNFDGLEEIDRALGIPELVSQSQAVDPEQFSSQDS"}, "B3": {"name": "GST-hTAFII55 (printed hTAFn55) (other, human, UniProt Q15545 1-349, looked up)", "chain": "MSKSKDDAPHELESQFILRLPPEYASTVRRAVQSGHVNLKDRLTIELHPDGRHGIVRVDRVPLASKLVDLPCVMESLKTIDKKTFYKTADICQMLVSTVDGDLYPPVEEPVASTDPKASKKKDKDKEKKFIWNHGITLPLKNVRKRRFRKTAKKKYIESPDVEKEVKRLLSTDAEAVSTRWEIIAEDETKEAENQGLDISSPGMSGHRQGHDSLEHDELREIFNDLSSSSEDEDETQHQDEEDINIIDTEEDLERQLQDKLNESDEQHQENEGTNQLVMGIQKQIDNMKGKLQETQDRAKRQEDLIMKVENLALKNRFQAVLDELKQKEDREKEQLSSLQEELESLLEK", "notes": "as for B1"}, "B4": {"name": "GST-hTAFII20 (printed hTAFn20) (other, human, UniProt Q16514 1-161, looked up)", "chain": "MNQFGPSALINLSNFSSIKPEPASTPPQGSMANSTAVVKIPGTPGAGGRLSPENNQVLTKKKLQDLVREVDPNEQLDEDVEEMLLQIADDFIESVVTAACQLARHRKSSTLEVKDVQLHLERQWNMWIPGFGSEEIRPYKKACTTEAHKQRMALIRKTTKK", "notes": "as for B1"}, "B5": {"name": "TIF2.12 (TIF2 amino acids 940-1131) (other)", "chain": "IGNSASRPTMPSGEWAPQSSAVRVTCAATTSAMNRPVQGGMIRNPAASIPMRPSSQPGQRQTLQSQVMNIGPSELEMNMGGPQYSQQQAPPNQTAPWPESILPIDQASFASQNRQPFGSSPDDLLCPHPAAESPSDEGALLDQLYLALRNFDGLEEIDRALGIPELVSQSQAVDPEQFSSQDSNIMLEQKAP", "notes": "In-vitro-translated"}, "B6": {"name": "TIF2.1 m13 (LL→AA in NR box motifs I and III) (other)", "chain": "ERADGQSRLHDSKGQTKLLQAATTKSDQMEPSPLASSLSDTNKDSTGSLPGSGSTHGTSLKEKHKILHRLLQDSSSPVDLAKLTAEATGKDLSQESSSTAPGSEVTIKQEPVSPKKKENALLRYAADKDDTKDIGLPEITPKLERLDSKTDPASNTKLIAMKTEKEEMSFEPGDQPGSELDNLEEILDDLQNSQLPQLFPDTRPGAPAGSVDKQAIINDLMQLTAENSPVTPVGAQKTALRISQSTFNNPRPGQLGRLLPNQNLPLDITLQSPTGAGPFPPIRNSSPYSVIPQPGMMGNQGMIGNQGNLGNSSTGMIGNSASRPTMPSGEWAPQSSAVRVTCAATTSAMNRPVQGGMIRNPAASIPMRPSSQPGQRQTLQSQVMNIGPSELEMNMGGPQYSQQQAPPNQTAPWPESILPIDQASFASQNRQPFGSSPDDLLCPHPAAESPSDEGALLDQLYLALRNFDGLEEIDRALGIPELVSQSQAVDPEQFSSQDSNIMLEQKAPVFPQQYASQAQMAQGSYSPMQDPNFHTMGQRPSYATLRMQPRPGLRPTGLVQNQPNQLRLQLQHRLQAQQNRQPLMNQISNVSNVNLTLRPGVPTQAPINAQMLAQRQREILNQHLRQRQMHQQQQVQQRTLMMRGQGLNMTPSMVAPSGMPATMS", "notes": "also called single intact NR box II"}, "B7": {"name": "TIF2.1 m23 (LL→AA in NR box motifs II and III) (other)", "chain": "B6 chain with A21L, A22L, L70A, L71A", "notes": "also called single intact NR box I"}}, "key": {"[1]": {"molecular_target": "T1, (His)6-TIF2.1, E. coli-expressed purified recombinant TIF2.1 (human, UniProt Q15596 624-1287)", "T1 construct": "also called His-tagged TIF2.1; purified TIF2.1 protein; not shown: (His)6 tag of pET15b", "T1 sequence": "B6 chain with A21L, A22L, A125L, A126L", "assay": "GST interaction assay (not shown)"}, "GAL4 reporter": {"tested_on": "GAL4 reporter", "assay": "GAL4 DBD-TIF2 fusion CAT reporter transactivation assay", "format": "cell-based", "conditions": "Cos-1 and/or HeLa cells", "experimental": "(a) HeLa cells were cotransfected with 1 μg (17m)5-βG-CAT and 10 μg GAL(1-147) or 1,3 and 10 μg GAL(1-147)-TIF2.1, respectively.\n(c) Analysis of the transcriptional activity of GAL-TIF2 fusion proteins. Cos-1 and HeLa cells were transfected with 3 lag of plasmids expressing different regions of TIF2 fised to the DNA-binding domain of the yeast transcription factor GALA together with 1 μg of the (7m)5-G-CAT reporterplasmid. CAT assays were performed as described (Bocquel, M. T. et al., Nucl Acids Res. 17:2581-2595 (1989)). Quantitative data on CAT reporter expression were obtained either by phosphoimager analysis (BAS2000, Fuji) of ^14C-labeled CAT reaction products separated by thin-layer chromatography, or using the CAT ELISA Kit (Boehringer Mannheim). In all cases, CAT activities were normalized to the β-galactosidase concentrations resulting from cotransfection of 1 μg of pCMVPGal (gift from T. Lerouge) as internal control. Fold inductions above the GAL4 DBD value are indicated. The mean and standard deviation of at least three experiments are shown. A representative Western blot, illustrating the expression levels of the GAL4-TIF2 fusion proteins, expressed from 10 μg of the corresponding expression vectors, is shown on the left.\n(b) Transcriptional activation of TIF2 AF-1 mutants. Cos-1 and HeLa cells were cotransfected with 3 μg of plasmids expressing different mutants of the TIF2 AF-1 fused to the DNA-binding domain of the yeast transcription factor GAL4 together with 1 μg of the (17m)5-G-CAT reporter plasmid. Fold inductions above the activation seen with the GAL4 DBD alone are indicated. The values represent the mean of at least three experiments.\n(a) Transcriptional activation by TIF2.13 and TIF2.13 mutants. Cos-1 and HeLa cells were cotransfected with 3 μg of plasmids expressing the TIF2.13 region and the indicated TIF2.13 mutants fused to the DNA-binding domain of the yeast transcription factor GALA together with 1 μg of the (17m)5-G-CAT reporter plasmid. Fold inductions above the GAL4 DBD 1-fold value are indicated. The mean and standard deviation obtained from at least four experiments are shown. The expression levels of the GAL4-TIF2.13 fusion proteins were confirmed by western blotting (data not shown).\nTransient transfections of HeLa and Cos-1 cells were performed as described (Gronemeyer et al., (1987); Bocquel, M. T. et al., Nucl. Acids Res. 17:2581-2595 (1989))."}, "GAL-CBP": {"tested_on": "GAL-CBP", "assay": "two hybrid analysis of CBP-TIF2 interaction in HeLa cells", "format": "cell-based", "experimental": "(e) Two hybrid analysis of the CBP-TIF2 interaction in mammalian cells in vivo. HeLa cells were transfected with 0.2 μg of the GAL4 or GALA-CBP (expressing CBP residues 1872 to 2165) expression vectors together with 0.2 μg of the VP16 or VPI6-TF2 expression vectors in the presence of 2 μg of (17m)5-TATA-CAT reporter plasmid. Fold induction relative to the GAL-CBP activity is indicated. The mean of three experiments is shown; in each case, values varied by less than ±20%.\nHeLa cells were transfected with 0.2 μg of GAL4 or GAL-CBP expression vectors together with 0.2 μg of VP16 or VP16-TIF2.13 expression vectors in the presence of 1 μg of (17m)5-TATA-CAT reporter plasmid. Data are represented as fold induction of the activity seen with GAL-CBP alone. The mean and standard, deviation obtained from ten experiments are shown. The expression levels were confirmed by Western blotting with antibodies directed against GAL4 DBD and VP16 AAD (data not shown).\nFurthermore, it was reported that SRC-1, which belongs to the same gene family as TIF2, interacts with CBP and p300 (Kamei, Y. et al., Cell 85:403-414 (1996); Yao, T. P. et al., Proc. Natl. Acad. Sci. USA 93:10626-10631 (1996); Hanstein, B., et al., Proc. Natl. Acad Sci USA 93:11540-11545 (1996)). Using GST-fusion protein-based interaction and animal cell-based two hybrid assays, we therefore analyzed whether TIF2 could also interact with CBP. […] A GST-CBP fusion protein was expressed in E. coli and used for puU-down assays with in vitro translated TIF2 polypeptides (FIG. 7d)."}, "[2]": {"molecular_target": "T2, GST-hRARα(DEF) (pGEX2T-hRARα(DEF), amino acids 153-462) (human, UniProt P10276 153-462)", "T2 construct": "range 153-462; Bacterially produced; also called GST-RAR; GST-RARα(DEF); not shown: glutathione-S-transferase (GST) of pGEX2T (Pharmacia)", "T2 sequence (looked up)": "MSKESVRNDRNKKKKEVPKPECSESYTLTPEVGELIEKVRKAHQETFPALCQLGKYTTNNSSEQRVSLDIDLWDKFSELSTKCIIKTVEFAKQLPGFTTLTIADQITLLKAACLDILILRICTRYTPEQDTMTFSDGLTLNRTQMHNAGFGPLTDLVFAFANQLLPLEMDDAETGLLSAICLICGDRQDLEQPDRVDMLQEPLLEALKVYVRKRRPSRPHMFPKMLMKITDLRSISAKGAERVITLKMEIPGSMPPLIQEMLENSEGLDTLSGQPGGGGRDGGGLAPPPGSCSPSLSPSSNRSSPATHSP", "assay": "GST pull-down with 35S in-vitro-translated TIF2 polypeptides (FIG. 7a-b)"}, "[3]": {"molecular_target": "T3, GST-hERα(DEF) (pGEX2T-hERα(DEF), amino acids 282-595) (human, UniProt P03372 282-595)", "T3 construct": "range 282-595; Bacterially produced; also used 32P-labelled as Far-Western probe; also called GST-ER; GST-ER(DEF); not shown: glutathione-S-transferase (GST) of pGEX2T (Pharmacia)", "T3 sequence (looked up)": "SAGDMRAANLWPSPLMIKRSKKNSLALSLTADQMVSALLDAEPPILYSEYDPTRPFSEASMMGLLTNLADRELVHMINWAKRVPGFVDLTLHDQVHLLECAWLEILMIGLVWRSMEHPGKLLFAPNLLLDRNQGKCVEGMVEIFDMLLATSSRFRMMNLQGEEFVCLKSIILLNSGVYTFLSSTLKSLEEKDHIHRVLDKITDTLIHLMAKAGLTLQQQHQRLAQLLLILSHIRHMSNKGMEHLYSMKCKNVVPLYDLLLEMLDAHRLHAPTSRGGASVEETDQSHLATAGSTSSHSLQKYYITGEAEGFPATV", "assay": "GST pull-down with 35S in-vitro-translated TIF2 polypeptides (FIG. 7a-b)"}, "[4]": {"molecular_target": "T4, GST-mRXRα(DE) (pGEX2T-mRXRα(DE), amino acids 205-467) (mouse, UniProt P28700 205-467)", "T4 construct": "range 205-467; also called GST-RXR; GST-RXRα(DE); not shown: glutathione-S-transferase (GST) of pGEX2T (Pharmacia)", "T4 sequence (looked up)": "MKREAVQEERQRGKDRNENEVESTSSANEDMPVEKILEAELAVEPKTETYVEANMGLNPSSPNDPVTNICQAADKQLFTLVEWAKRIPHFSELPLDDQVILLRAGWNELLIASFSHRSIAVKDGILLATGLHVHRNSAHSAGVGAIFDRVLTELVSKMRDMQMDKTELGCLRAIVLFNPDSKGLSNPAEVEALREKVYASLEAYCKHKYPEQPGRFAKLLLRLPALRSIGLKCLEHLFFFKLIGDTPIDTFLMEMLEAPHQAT", "assay": "in vitro GST interaction of TIF2.1 point mutants, with ligand, relative to TIF2.1 wild type"}, "[5]": {"molecular_target": "T2, GST-hRARα(DEF) (pGEX2T-hRARα(DEF), …)", "assay": "in vitro GST interaction of TIF2.1 point mutants, with ligand, relative to TIF2.1 wild type"}}, "note": "Where a chain is given by its changes, count along the chain named.", "data": [{"molecule": "B1", "values": [{"measurement": "binding result", "setting": "[1]", "value": "no binding"}]}, {"molecule": "B2", "values": [{"measurement": "transcriptional activation of GAL4 reporter by GAL4 DBD fusion", "setting": "GAL4 reporter", "value": "potent transcriptional activity"}, {"measurement": "interaction with GAL-CBP, two hybrid", "setting": "GAL-CBP", "value": "also interacted with CBP in vivo"}]}, {"molecule": "B3", "values": [{"measurement": "binding result", "setting": "[1]", "value": "no binding"}]}, {"molecule": "B4", "values": [{"measurement": "binding result", "setting": "[1]", "value": "no binding"}]}, {"molecule": "B5", "values": [{"measurement": "binding result", "setting": "[2]", "value": "no binding"}, {"measurement": "binding result", "setting": "[3]", "value": "no binding"}]}, {"molecule": "B6", "values": [{"measurement": "times less efficient in NR interaction than the wild-type TIF2", "setting": "[4]", "value": "5 times less efficient than wild type"}, {"measurement": "times less efficient in NR interaction than the wild-type TIF2", "setting": "[5]", "value": "5 times less efficient than wild type"}]}, {"molecule": "B7", "values": [{"measurement": "times less efficient in NR interaction than the wild-type TIF2", "setting": "[4]", "value": "20 times less efficient than wild type"}, {"measurement": "times less efficient in NR interaction than the wild-type TIF2", "setting": "[5]", "value": "20 times less efficient than wild type"}]}]}
